Measurements published in PMC4810480.

Target: human CD26 (residues 39 to 766) (human) (UniProt P27487)
Assay: SPR

UniProt P27487, sequence (P27487 39-766): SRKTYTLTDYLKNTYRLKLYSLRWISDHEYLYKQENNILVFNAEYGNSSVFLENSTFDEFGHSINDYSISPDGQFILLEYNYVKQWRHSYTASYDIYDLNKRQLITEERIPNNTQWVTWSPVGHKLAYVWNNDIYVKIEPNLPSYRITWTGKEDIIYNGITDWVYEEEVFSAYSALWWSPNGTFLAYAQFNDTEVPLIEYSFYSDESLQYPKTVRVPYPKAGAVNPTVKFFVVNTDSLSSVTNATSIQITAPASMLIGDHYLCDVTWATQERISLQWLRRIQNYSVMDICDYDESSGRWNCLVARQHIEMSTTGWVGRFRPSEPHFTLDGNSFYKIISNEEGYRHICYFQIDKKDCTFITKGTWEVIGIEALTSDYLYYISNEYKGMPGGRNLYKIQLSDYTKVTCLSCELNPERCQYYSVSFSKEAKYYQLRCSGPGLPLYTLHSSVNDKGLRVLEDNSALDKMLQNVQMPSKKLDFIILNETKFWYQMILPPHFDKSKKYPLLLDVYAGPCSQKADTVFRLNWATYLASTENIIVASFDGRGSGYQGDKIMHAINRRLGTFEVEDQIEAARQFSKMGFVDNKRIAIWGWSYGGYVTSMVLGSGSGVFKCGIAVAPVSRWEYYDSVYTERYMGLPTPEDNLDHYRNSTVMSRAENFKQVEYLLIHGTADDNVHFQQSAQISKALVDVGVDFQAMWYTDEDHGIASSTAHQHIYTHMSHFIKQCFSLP

MERS-CoV spike receptor-binding domain (RBD), wild type (from UniProt K9N5Q8 367-606) (domain or fragment)
Kd: 64.5 nM
koff: 0.000936 s⁻¹
kon: 14500 M⁻¹ s⁻¹
